Square brackets hold non-standard residues; d marks the D form.
Legend:
Assay in all cases: cell-based or functional assay
[1] = target: mouse melanocortin-1 receptor (mouse, UniProt Q01727 1-315)
[2] = target: mouse melanocortin-3 receptor (mouse, UniProt P33033 1-323)
[3] = target: mouse melanocortin-4 receptor (mouse, UniProt P56450 1-332)
[4] = target: mouse melanocortin-5 receptor (mouse, UniProt P41149 1-325)
Chain of mouse melanocortin-5 receptor (P41149 whole entry): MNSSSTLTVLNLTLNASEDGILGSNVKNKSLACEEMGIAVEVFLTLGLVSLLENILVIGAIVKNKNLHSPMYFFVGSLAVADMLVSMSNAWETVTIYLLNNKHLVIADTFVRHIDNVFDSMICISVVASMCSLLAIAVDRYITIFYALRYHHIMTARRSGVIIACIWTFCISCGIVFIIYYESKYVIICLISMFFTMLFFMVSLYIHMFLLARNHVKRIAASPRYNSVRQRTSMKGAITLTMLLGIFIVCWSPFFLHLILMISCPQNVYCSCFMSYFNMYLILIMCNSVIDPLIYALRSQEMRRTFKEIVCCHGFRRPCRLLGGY

Chain of mouse melanocortin-3 receptor (P33033 whole entry): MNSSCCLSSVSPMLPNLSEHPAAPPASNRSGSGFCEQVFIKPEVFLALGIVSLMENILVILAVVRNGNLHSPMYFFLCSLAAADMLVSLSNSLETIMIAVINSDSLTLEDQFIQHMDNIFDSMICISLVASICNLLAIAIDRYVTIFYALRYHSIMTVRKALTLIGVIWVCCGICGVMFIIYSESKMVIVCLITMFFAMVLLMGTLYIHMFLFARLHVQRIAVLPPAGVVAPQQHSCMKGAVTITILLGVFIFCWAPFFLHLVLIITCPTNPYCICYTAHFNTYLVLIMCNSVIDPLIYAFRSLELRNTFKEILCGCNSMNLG
Chain of mouse melanocortin-1 receptor (Q01727 whole entry): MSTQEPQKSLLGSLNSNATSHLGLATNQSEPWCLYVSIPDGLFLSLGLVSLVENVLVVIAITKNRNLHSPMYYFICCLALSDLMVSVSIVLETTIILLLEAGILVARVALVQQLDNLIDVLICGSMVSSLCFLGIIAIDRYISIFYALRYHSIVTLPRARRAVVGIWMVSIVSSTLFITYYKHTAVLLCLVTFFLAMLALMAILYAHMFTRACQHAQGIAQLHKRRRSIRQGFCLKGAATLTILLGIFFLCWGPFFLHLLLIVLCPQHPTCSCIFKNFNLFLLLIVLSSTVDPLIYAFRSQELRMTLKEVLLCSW
Chain of mouse melanocortin-4 receptor (P56450 whole entry): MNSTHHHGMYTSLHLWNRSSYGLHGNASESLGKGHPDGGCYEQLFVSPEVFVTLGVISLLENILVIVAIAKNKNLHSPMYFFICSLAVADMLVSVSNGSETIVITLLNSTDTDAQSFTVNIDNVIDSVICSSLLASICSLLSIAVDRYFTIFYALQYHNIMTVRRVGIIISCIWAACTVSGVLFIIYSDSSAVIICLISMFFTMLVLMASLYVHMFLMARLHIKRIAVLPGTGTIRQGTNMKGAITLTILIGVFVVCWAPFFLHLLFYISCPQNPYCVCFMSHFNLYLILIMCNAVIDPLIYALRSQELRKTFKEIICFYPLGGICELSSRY

% activation at 100 µM (cAMP AlphaScreen) [1]: 40% | antagonist pA2 (Schild, agonist NDP-MSH) [2]: < 5.5 | antagonist pA2 (Schild, agonist NDP-MSH) [3]: < 5.5 | inverse agonist, % change from basal cAMP at 100 µM [4]: -25%
B1: c[Pro-Arg-Phe-Phe-Asn-Ala-Asp-DPro] (peptide)
peptide: cyclo(PRFFNAD[dP])
SMILES: C[C@@H]1NC(=O)[C@H](CC(N)=O)NC(=O)[C@H](Cc2ccccc2)NC(=O)[C@H](Cc2ccccc2)NC(=O)[C@H](CCCNC(=N)N)NC(=O)[C@@H]2CCCN2C(=O)[C@H]2CCCN2C(=O)[C@H](CC(=O)O)NC1=O

— patent US20200115416A1 (REGENTS OF THE UNIVERSITY OF MINNESOTA, published 2020)
